Data: patent publication US20260348975 (published 2026)

What was measured:
Assay in all cases: SPR
[1] = target: T1, IL-33/sST2 complex (human)
T1 chain 1: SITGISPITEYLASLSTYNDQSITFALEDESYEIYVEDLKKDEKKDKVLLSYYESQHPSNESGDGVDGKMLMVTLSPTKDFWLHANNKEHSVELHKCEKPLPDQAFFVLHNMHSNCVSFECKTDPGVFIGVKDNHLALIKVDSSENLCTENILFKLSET
T1 chain 2: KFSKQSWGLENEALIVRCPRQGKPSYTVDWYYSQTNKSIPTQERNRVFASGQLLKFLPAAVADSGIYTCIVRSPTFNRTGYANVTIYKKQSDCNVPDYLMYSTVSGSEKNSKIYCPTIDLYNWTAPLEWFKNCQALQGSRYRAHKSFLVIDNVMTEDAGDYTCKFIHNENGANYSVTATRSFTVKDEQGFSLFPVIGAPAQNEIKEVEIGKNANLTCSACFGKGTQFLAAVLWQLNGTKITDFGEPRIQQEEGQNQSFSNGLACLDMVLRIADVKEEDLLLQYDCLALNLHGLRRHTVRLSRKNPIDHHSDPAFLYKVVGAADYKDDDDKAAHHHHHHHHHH

[2] = target: T2, reduced IL-33 (human)
T2 chain: T1 chain 1

[3] = target: T3, oxidized IL-33 (human)
T3 chain: T1 chain 1

B1: AB1070008 (antibody, V domains shown)
VH: QVQLQQSGPELVKPGASVKTSCKASGYSFTSYYIHWVKQRPGQGLEWIGWIYPGSGNTKYNEKFKGKATLTADTSSSTAFMQLSSLTSEDSAVYYCASGFHYYGRMDYWGQGTTLTVSS
VL: DIQMTQSPSSLSASLGERVSLTCRASQEISGYLSWLQQKPDGTIKRLIYSTSTLDSGVPKSFSGSRSGSDYSLTISSLESEDFADYYCLQYASSPWTFGGGTKLEIK
Kd [1]: 26.5 nM
Kd [2]: 0.895 nM

B2: AB1070141 (antibody, V domains shown)
VH: QVQLQQSGAELMKPGASVKLSCKATGYIVTDYWIEWVKQRPGHGLEWIGEILPRSDSTNYNEKFKVRATFTADTSSNTAYMQLSSLTTEDSAIYYCASHYHYDGSLFVYWGQGTLVTVSS
VL: DIVMSQSPSSLAVSAGEKVTMSCKSSQSLLNSRTRKNYLAWYQQKPGQSPKLLIYWASTRESGVPDRFTGSGSGTDFTLTISSVQAEDLAVYYCKQSYSLPTFGGGTKLEIK
Kd [3]: 1.83 nM

B3: AB1070019 (antibody, V domains shown)
VH: QVQLQQSGAELAKPGASVKMSCKASGYTFTRYWMHWIKQRPGQGLEWIGYINPYSGYTEYNQKFKDKATLTADKSSSTAYMQLSSLTSEDSAVYYCARYSYYTYDGRGYAMDYWGQGTSVTVSS
VL: DIVMTQSQKFMSTSVGDRVSVTCKASQNVGTNVAWYQQKPGQSPKALIYSASYRYSGVPDRFTGSGSGTDFTLTISNVQSEDLAEYFCQQYNSYPFTFGSGTKLEIK
Kd [2]: 0.068 nM
